This test deals with recombinant circular RABV N10-RNA complex purified from insect cells (phosphorylated) (rabies virus (RABV)) (UniProt Q8JXF6). The test can be described thus: SPR. A general note: In SPR one partner is held on a chip, and binding of the other changes the refractive index at the surface.

The term Kd denotes the free concentration of one partner at which half of the binding sites on the other are occupied at equilibrium, for simple one-to-one binding. One may read the stoichiometry N as a count of units in the complex or per binding partner.

Sequence of recombinant circular RABV N10-RNA complex purified from insect cells (phosphorylated) (rabies virus (RABV)) (Q8JXF6 whole entry, one chain of several): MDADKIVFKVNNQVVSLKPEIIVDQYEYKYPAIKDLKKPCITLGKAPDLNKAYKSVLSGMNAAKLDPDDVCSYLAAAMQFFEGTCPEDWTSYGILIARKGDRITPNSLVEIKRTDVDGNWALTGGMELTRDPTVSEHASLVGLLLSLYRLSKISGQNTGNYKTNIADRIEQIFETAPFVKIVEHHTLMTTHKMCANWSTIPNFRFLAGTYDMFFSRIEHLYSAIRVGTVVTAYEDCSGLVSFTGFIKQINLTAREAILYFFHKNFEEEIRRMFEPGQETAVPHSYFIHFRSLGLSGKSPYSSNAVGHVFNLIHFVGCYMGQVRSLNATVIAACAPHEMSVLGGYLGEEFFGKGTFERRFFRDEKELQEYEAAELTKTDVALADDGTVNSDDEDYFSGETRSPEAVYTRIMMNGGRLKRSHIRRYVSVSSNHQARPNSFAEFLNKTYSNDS

With “RABV phosphoprotein P deleted of residues 90-133 (dimerization domain) (domain or fragment)”, the Kd amounted to 0.08 µM and the stoichiometry N amounted to 1.7.

(Values after article PMC11599015.)
